B1: Protein GLUTAMINE DUMPER 1 (Arabidopsis thaliana (Mouse-ear cress)), O81775 (parent)
chain: MRPLSVQSKFEDVATSTSVNHHGVTPQSPWHSPVPYLFGGLAAMLGLIAFALLILACSYWRLSSSGEEDGQNVDEEKESRSGDKAANGAYEEKFLVIMAGEDLPRYLATPAMKKCTCGGHEGKMVISQEESVAKEEEKMREGEEEKVKDTGETTTTSH
partner: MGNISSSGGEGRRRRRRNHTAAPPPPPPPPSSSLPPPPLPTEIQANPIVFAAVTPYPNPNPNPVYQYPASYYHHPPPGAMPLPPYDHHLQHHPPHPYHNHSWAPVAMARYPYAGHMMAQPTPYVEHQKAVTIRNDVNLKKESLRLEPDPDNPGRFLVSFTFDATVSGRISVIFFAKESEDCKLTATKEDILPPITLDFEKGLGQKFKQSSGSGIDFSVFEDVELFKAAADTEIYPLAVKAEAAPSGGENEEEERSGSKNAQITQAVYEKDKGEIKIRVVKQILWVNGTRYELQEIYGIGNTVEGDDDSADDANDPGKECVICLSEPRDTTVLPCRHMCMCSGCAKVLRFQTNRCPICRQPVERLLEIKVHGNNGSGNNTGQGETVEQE
B2: Probable E3 ubiquitin-protein ligase LOG2 (Arabidopsis thaliana (Mouse-ear cress)), Q9S752 (parent)
chain: B1 partner
partner: B1 chain
B3: Protein GLUTAMINE DUMPER 1 (Arabidopsis thaliana (Mouse-ear cress)), O81775 (parent)
chain: B1 chain
partner: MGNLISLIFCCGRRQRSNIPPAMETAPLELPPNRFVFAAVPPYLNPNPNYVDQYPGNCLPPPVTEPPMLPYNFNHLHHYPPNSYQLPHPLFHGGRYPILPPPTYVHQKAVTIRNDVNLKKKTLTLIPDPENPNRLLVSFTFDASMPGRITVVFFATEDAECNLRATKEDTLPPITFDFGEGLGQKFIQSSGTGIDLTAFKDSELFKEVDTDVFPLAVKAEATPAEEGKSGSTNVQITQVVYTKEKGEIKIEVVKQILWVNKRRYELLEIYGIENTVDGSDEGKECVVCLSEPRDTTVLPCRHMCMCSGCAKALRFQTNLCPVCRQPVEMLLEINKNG

Variants of: B1
Details: with lofg2_arath LOG2, Q9S752

effect of a mutation on the interaction | Variant
disrupting interaction | MRPLSVQSKFEDVATSTSVNHHGVTPQSPWHSPVPYLFGGLAAMLGLIAFALLILACSYWRLSSSGEEDGQNVDEEKESRSGDKAANGAYEEKFLVIMAREDLPRYLATPAMKKCTCGGHEGKMVISQEESVAKEEEKMREGEEEKVKDTGETTTTSH [G100R]

Variants of: B2
Details: with gdu1_arath GDU1, O81775

effect of a mutation on the interaction | Variant
decreasing interaction | MANISSSGGEGRRRRRRNHTAAPPPPPPPPSSSLPPPPLPTEIQANPIVFAAVTPYPNPNPNPVYQYPASYYHHPPPGAMPLPPYDHHLQHHPPHPYHNHSWAPVAMARYPYAGHMMAQPTPYVEHQKAVTIRNDVNLKKESLRLEPDPDNPGRFLVSFTFDATVSGRISVIFFAKESEDCKLTATKEDILPPITLDFEKGLGQKFKQSSGSGIDFSVFEDVELFKAAADTEIYPLAVKAEAAPSGGENEEEERSGSKNAQITQAVYEKDKGEIKIRVVKQILWVNGTRYELQEIYGIGNTVEGDDDSADDANDPGKECVICLSEPRDTTVLPCRHMCMCSGCAKVLRFQTNRAPIARQPVERLLEIKVHGNNGSGNNTGQGETVEQE [G2A;C354A;C357A]

Variants of: B3
Details: with lul1_arath LUL1, Q9LYW5

effect of a mutation on the interaction | Variant
disrupting interaction | MRPLSVQSKFEDVATSTSVNHHGVTPQSPWHSPVPYLFGGLAAMLGLIAFALLILACSYWRLSSSGEEDGQNVDEEKESRSGDKAANGAYEEKFLVIMAREDLPRYLATPAMKKCTCGGHEGKMVISQEESVAKEEEKMREGEEEKVKDTGETTTTSH [G100R]

From IntAct's records for PubMed 22291198
